In patent publication US10143754B2, “Method for peroral delivery of insulin and its analogues for therapeutic usage” (TRANSGENE BIOTEK LIMITED, priority 2011, dated 2018):

What was measured:
[1] = acid pH; cited from earlier work
[2] = test system: Streptozotocin induced diabetic Wistar or Sprague Dawley rats; assay: Modification of blood/serum glucose of diabetic rats; assay type: in vivo, rat; conditions: IV administration, FIG. 1
[3] = rat, in vivo, iv

Substance	solubility [1]	duration of hypoglycemic effect [2]	reduction of blood glucose levels [2]	plasma insulin levels [3]
Insulin Glargine	soluble at acid pH			
Insulin Lispro		short lived	rapid reduction of blood glucose levels	increased in accordance with the reduction in serum glucose levels but reduced rapidly
